According to patent US20180051082A1 (ANAPTYSBIO, published 2018):

Columns and labels:
[1] = biological target: T1, full-length human PD-1 on the cell surface (human, UniProt Q15116 25-288); assay: hybridoma screening, flow cytometry on PD-1 CHO-K1 cells (Example 1)
T1 construct: whole, on cells; also called PD-1 CHO cells; CHO-K1 cells stably expressing full length human PD-1
Procedure: Hybridoma supernatants from ten 96-well plates were screened for binding to a CHO-K1 cell clone stably transfected with a nucleic acid sequence encoding full length human PD-1 and compared to binding to untransfected CHO-K1 cells. Specifically, hybridoma supernatants were diluted 1:1 with PBS/2% FBS and incubated with an equal volume of PD-1 CHO-K1 cells (2.5×10⁵ cells in PBS, 2% FBS) for 30 minutes at 4° C. Cells were centrifuged, washed once with PBS/1% FBS, and incubated with APC-conjugated goat anti-mouse IgG (H+L) (Southern Biotechnology, Birmingham, Ala.) for 30 minutes at 4° C. […] Mouse IgG levels were quantified by ELISA.

[2] = biological target: T1, full-length human PD-1 on the cell …; assay: binding to PD-1 antigens as in Example 1 (format not restated)
[3] = biological target: T1, full-length human PD-1 on the cell …; assay: cell-based or functional assay
[4] = biological target: T2, monomeric soluble human PD1-Avi-His (human, UniProt Q15116 25-170); assay: KINEXA 3000 solution-based affinity, PD1-Avi-His titrated against constant antibody
T2 construct: extracellular domain; not shown: Avi tag and His tag at the C-terminus
Procedure: Solution-based affinity analyses were carried out using a KINEXA™ 3000 assay (Sapidyne Instruments, Boise, Idaho), and results were analyzed using KINEXA™ Pro Software 3.2.6. Experimental parameters were selected to reach a maximum signal with antibody alone between 0.8 and 1.2 V, while limiting nonspecific binding signal with buffer alone to less than 10% of the maximum signal. Azlactone beads (50 mg) were coated with antigen by diluting in a solution of PD-1-Avi-His (50 μg/mL in 1 mL) in 50 mM Na₂CO₃. The solution was rotated at room temperature for 2 hours, and beads were pelleted in a picofuge and washed twice with blocking solution (10 mg/mL BSA, 1 M Tris-HCl, pH 8.0). Beads were resuspended in blocking solution (1 mL), rotated at room temperature for 1 hour, and diluted in 25 volumes PBS/0.02% NaN3. […] All samples were diluted in PBS, 0.2% NaN₃, 1 mg/mL BSA and allowed to equilibrate at room temperature for 30 hours. Additionally, samples containing only antibody and only buffer were tested in order to determine maximum signal and nonspecific binding signal, respectively.

[5] = biological target: T2, monomeric soluble human PD1-Avi-His; assay: SPR (BIACORE T200), antibody captured on anti-human IgG, monomeric PD1-Avi-His flowed, 1:1 fit
Procedure: SPR analyses were carried out using a BIACORE™ T200 instrument, and kinetic constants were determined using the BIACORE™ T200 evaluation software. Experimental parameters were chosen to ensure that saturation would be reached at the highest antigen concentrations and that Rmax values would be kept under 30 RU. GE anti-Human IgG (Fc-specific, approximately 7,000 RU) was immobilized on a BIACORETM CM5 chip using EDC-activated amine coupling chemistry. Antibodies (0.5 μg/mL, 60 second capture time) were then captured using this surface. Next, monomeric soluble human PD1-Avi-His was flowed over captured antibody (300 second association, 300 second dissociation) using a three-fold serial dilution series from 500 nM to 2 nM. Captured antibody and antigen were removed between each cycle using 3 M MgCl₂ (60 second contact time) in order to ensure a fresh binding surface for each concentration of antigen. The resulting sensorgrams were fit globally using a 1:1 binding model in order to calculate on- and off-rates (kₐ and kd, respectively), as well as affinities (KD).

T1 sequence (Q15116 25-288): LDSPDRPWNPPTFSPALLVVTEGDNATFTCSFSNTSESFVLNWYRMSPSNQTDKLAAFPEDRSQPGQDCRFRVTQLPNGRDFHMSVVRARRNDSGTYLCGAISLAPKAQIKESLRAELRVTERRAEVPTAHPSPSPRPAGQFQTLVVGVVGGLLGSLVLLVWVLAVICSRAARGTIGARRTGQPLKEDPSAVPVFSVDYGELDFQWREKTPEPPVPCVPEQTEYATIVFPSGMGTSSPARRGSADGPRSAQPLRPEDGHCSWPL
T2 sequence (Q15116 25-170): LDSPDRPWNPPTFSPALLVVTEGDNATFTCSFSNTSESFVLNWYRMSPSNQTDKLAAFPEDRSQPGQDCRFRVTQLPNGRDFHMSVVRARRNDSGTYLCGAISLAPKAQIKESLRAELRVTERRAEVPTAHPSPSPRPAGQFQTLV

Binder | Kd [5] | koff [5] | kon [5] | also measured
10B11 (mouse monoclonal antibody) (antibody, V domains shown, Mouse hybridoma antibody) VH: DVKLVESGGGLVKPGGSLKVSCAASGFTFSSYTMSWVRQTPEKRLEWVAVISSGGNSTYYPDSVKGRFTISRDNAKNTLYLQMSSLKSEDTAMYYCTREHYGSSHFAYWGQGTLVTVSA VL: not shown |  |  |  | binding result [1]: binds
10B11 mouse:human chimeric antibody (antibody, human IgG1, V domains shown, also called chimeric 10B11) VH: DVKLVESGGGLVKPGGSLKVSCAASGFTFSSYTMSWVRQTPEKRLEWVAVISSGGNSTYYPDSVKGRFTISRDNAKNTLYLQMSSLKSEDTAMYYCTREHYGSSHFAYWGQGTLVTVSA VL: not shown |  |  |  | binding result [2]: binds
6E9 (mouse monoclonal antibody) (antibody, V domains shown, Mouse hybridoma antibody) VH: EVMLVESGGGLVKPGGSLKLSCAASGFTFSSYDMSWVRQTPEKRLEWVATISGGGSYTYYQDSVKGRFTISRDNAKNTLYLQMSSLRSEDTAMYYCASPYYAMDYWGQGTSVTVSS VL: DIVMTQSHKFMSTSVGDRVSITCKASQDVGTAVAWYQQKPGQSPKLLIYWASTRHTGVPDRFTGSGSGTDFTLTISNVQSEDLADYFCQHYSSYPWTFGGGTKLEIKR |  |  |  | binding result [1]: binds
6E9 mouse:human chimeric antibody (antibody, human IgG1, V domains shown, also called chimeric 6E9) VH: EVMLVESGGGLVKPGGSLKLSCAASGFTFSSYDMSWVRQTPEKRLEWVATISGGGSYTYYQDSVKGRFTISRDNAKNTLYLQMSSLRSEDTAMYYCASPYYAMDYWGQGTSVTVSS VL: DIVMTQSHKFMSTSVGDRVSITCKASQDVGTAVAWYQQKPGQSPKLLIYWASTRHTGVPDRFTGSGSGTDFTLTISNVQSEDLADYFCQHYSSYPWTFGGGTKLEIKR |  |  |  | binding result [2]: binds
9A2 (mouse monoclonal antibody) (antibody, V domains shown, Mouse hybridoma antibody) VH: DVKLVESGGGLVKPGGSLKLSCAASGFTFSSYTLSWVRQTPGKRLEWVAVISSGGDYAYYPDSVQGRFTISRDNAKNTLYLQMNSLKSEDTAMYYCSRDHYGTSHFAYWGQGTLVTVSA VL: not shown |  |  |  | binding result [1]: binds
9A2 mouse:human chimeric antibody (antibody, human IgG1, V domains shown, also called chimeric 9A2) VH: DVKLVESGGGLVKPGGSLKLSCAASGFTFSSYTLSWVRQTPGKRLEWVAVISSGGDYAYYPDSVQGRFTISRDNAKNTLYLQMNSLKSEDTAMYYCSRDHYGTSHFAYWGQGTLVTVSA VL: not shown |  |  |  | binding result [2]: binds
APE1923 (antibody, human IgG1, V domains shown, expressed from HEK 293 cells as human IgG1) VH: EVQLLESGGGLVQPGGSLRLSCAASGFTFSSYTMSWVRQAPGKGLEWVSVISSGGNSAYYPDSVQGRFTISRDNSKNTLYLQMNSLRAEDTAVYYCAKEHYGTSHFAYWGQGTLVTVSS VL: EIVLTQSPATLSLSPGERATLSCRASESVDNFGISFMSWYQQKPGQAPRLLIYAASNPGSGIPARFSGSGSGTDFTLTISSLEPEDFAVYYCQQSKEVPYTFGQGTKLEIK | 9 nM | 0.0017 s⁻¹ | 190000 M⁻¹ s⁻¹ | Kd [4]: 1 nM
APE1922 (antibody, human IgG1, V domains shown, expressed from HEK 293 cells as human IgG1) VH: EVQLLESGGGLVQPGGSLRLSCAASGFTFSSYTMSWVRQAPGKGLEWVSVISSGGDSAYYPDSVQGRFTISRDNSKNTLYLQMNSLRAEDTAVYYCAKEHYGTSHFAYWGQGTLVTVSS VL: EIVLTQSPATLSLSPGERATLSCRASESVDNFGISFMSWYQQKPGQAPRLLIYAASNPGSGIPARFSGSGSGTDFTLTISSLEPEDFAVYYCQQSKEVPYTFGQGTKLEIK | 15 nM | 0.0018 s⁻¹ | 130000 M⁻¹ s⁻¹ | 
APE1950 (antibody, human IgG1, V domains shown, expressed from HEK 293 cells as human IgG1) VH: EVQLLESGGGLVQPGGSLRLSCAASGFTFSSYTMSWVRQAPGKGLEWVSVISSGGDSTYYPDSVQGRFTISRDNSKNTLYLQMNSLRAEDTAVYYCAKEHYGTSHFAYWGQGTLVTVSS VL: EIVLTQSPATLSLSPGERATLSCRASESVDNFGISFMSWYQQKPGQAPRLLIYAASNPGSGIPARFSGSGSGTDFTLTISSLEPEDFAVYYCQQSKEVPYTFGQGTKLEIK | 17 nM | 0.0025 s⁻¹ | 150000 M⁻¹ s⁻¹ | 
APE1963 (antibody, human IgG1, V domains shown, expressed from HEK 293 cells as human IgG1) VH: EVQLLESGGGLVQPGGSLRLSCAASGFTFSSYTMSWVRQAPGKGLEWVSVISSGGNSAYYPDSVQGRFTISRDNSKNTLYLQMNSLRAEDTAVYYCAKEYYGSSHFAYWGQGTLVTVSS VL: EIVLTQSPATLSLSPGERATLSCRASESVDNFGISFMSWYQQKPGQAPRLLIYAASNPGSGIPARFSGSGSGTDFTLTISSLEPEDFAVYYCQQSKEVPYTFGQGTKLEIK | 17 nM | 0.001 s⁻¹ | 58000 M⁻¹ s⁻¹ | 

Now from value to binder, other results behind:

Kd [5] | koff [5] | kon [5] | Binder | also measured
2 nM | 0.00064 s⁻¹ | 300000 M⁻¹ s⁻¹ | APE2058 (antibody, human IgG1, V domains shown, expressed from HEK 293 cells as human IgG1; also called anti-PD-1) VH: EVQLLESGGGLVQPGGSLRLSCAASGFTFSSYDMSWVRQAPGKGLEWVSTISGGGSYTYYQDSVKGRFTISRDNSKNTLYLQMNSLRAEDTAVYYCASPYYAMDYWGQGTTVTVSS VL: DIQLTQSPSFLSAYVGDRVTITCKASQDVGTAVAWYQQKPGKAPKLLIYWASTLHTGVPSRFSGSGSGTEFTLTISSLQPEDFATYYCQHYSSYPWTFGQGTKLEIK | EC50, multiple human CD4+ T-cell MLR assays [3]: 0.02 µg/mL; Kd [4]: 0.2 nM
10 nM | 0.0018 s⁻¹ | 180000 M⁻¹ s⁻¹ | APE1924 (antibody, human IgG1, V domains shown, expressed from HEK 293 cells as human IgG1) VH: EVQLLESGGGLVQPGGSLRLSCAASGFTFSSYTMSWVRQAPGKGLEWVSVISSGGNYAYYPDSVQGRFTISRDNSKNTLYLQMNSLRAEDTAVYYCAKEHYGTSHFAYWGQGTLVTVSS VL: EIVLTQSPATLSLSPGERATLSCRASESVDNFGISFMSWYQQKPGQAPRLLIYAASNPGSGIPARFSGSGSGTDFTLTISSLEPEDFAVYYCQQSKEVPYTFGQGTKLEIK | Kd [4]: ~1 nM
